From patent US10344068B2, “Natriuretic polypeptides” (priority 2011, dated 2019)
Ends that are not written are not given here.

Assays:
Format in all cases: cell-based
[1] = system: Human cardiac fibroblasts; assay: cGMP production in human cardiac fibroblasts (competitive RIA cGMP kit); conditions: human cardiac fibroblasts (CFs); 10^-6 M, 10^-8 M or 10^-10 M of NP or cANG for 10 minutes
Experimental: cANG was custom-synthesized to have the sequence set forth in FIG. 4 and confirmed by high performance liquid chromatography and mass spectroscopy to have a molecular weight of 3080.6 Da. Human cardiac fibroblasts (CFs; ScienCell, San Diego, Calif.) were cultured in the manufacturer's fibroblast media (ScienCell, San Diego, Calif.) supplemented with fibroblast growth serum (FGS), fetal bovine serum (FBS), and Pen/Strep. Cells were treated at 80-90% confluency. Only cell passages 1 through 4 were used for experiments. To perform a cyclic GMP assay, the cells were treated as described previously (Huntley et al., J. Cell. Physiol., 209(3):943-9 (2006)). Briefly, cells were incubated in Hank's balanced salt solution (Invitrogen, Carlsbad, Calif.) containing 20 mmol/L N-[2-hydroxyethyl]piperazine-N′[2-ethanesulfonic acid], 0.1% bovine serum albumin, and 0.5 mmol/L 3-isobutyl-1-methylzanthine (Sigma, St. Louis, Mo.). Treated cells received 10^−6 M, 10^−8M, or 10^−10 M of NP or cANG for 10 minutes. Cells were lysed in 6% TCA and sonicated for 10 minutes. The samples were ether extracted four times in four volumes of ether, dried, and reconstituted in […] of cGMP assay buffer.
The samples were assayed using a competitive RIA cGMP kit (Perkin-Elmer, Boston, Mass.). Briefly, samples and standards were incubated with […] anti-human cGMP polyclonal antibody and I^125-antigen for 18 hours. Cyclic GMP assay buffer was added to the samples, and they were centrifuged for 20 minutes at 2500 rpm. The free fraction was aspirated off, and the bound fraction was counted and concentrations determined. Samples were corrected for dilution factors and protein concentration, and values were expressed as pmoles/mL.

NPR-B (GC-B) = biological target: T1, NPR-B (GC-B) (Homo sapiens, UniProt P20594); assay: cGMP production in HEK 293 cells stably transfected to express NPR-B (GC-B); conditions: NPR-B+ HEK 293 cells; 10^-10 M, 10^-8 M or 10^-6 M for 10 minutes
T1 construct: expressed in transfected cells; host or cells: HEK 293
T1 sequence (P20594 23-1047): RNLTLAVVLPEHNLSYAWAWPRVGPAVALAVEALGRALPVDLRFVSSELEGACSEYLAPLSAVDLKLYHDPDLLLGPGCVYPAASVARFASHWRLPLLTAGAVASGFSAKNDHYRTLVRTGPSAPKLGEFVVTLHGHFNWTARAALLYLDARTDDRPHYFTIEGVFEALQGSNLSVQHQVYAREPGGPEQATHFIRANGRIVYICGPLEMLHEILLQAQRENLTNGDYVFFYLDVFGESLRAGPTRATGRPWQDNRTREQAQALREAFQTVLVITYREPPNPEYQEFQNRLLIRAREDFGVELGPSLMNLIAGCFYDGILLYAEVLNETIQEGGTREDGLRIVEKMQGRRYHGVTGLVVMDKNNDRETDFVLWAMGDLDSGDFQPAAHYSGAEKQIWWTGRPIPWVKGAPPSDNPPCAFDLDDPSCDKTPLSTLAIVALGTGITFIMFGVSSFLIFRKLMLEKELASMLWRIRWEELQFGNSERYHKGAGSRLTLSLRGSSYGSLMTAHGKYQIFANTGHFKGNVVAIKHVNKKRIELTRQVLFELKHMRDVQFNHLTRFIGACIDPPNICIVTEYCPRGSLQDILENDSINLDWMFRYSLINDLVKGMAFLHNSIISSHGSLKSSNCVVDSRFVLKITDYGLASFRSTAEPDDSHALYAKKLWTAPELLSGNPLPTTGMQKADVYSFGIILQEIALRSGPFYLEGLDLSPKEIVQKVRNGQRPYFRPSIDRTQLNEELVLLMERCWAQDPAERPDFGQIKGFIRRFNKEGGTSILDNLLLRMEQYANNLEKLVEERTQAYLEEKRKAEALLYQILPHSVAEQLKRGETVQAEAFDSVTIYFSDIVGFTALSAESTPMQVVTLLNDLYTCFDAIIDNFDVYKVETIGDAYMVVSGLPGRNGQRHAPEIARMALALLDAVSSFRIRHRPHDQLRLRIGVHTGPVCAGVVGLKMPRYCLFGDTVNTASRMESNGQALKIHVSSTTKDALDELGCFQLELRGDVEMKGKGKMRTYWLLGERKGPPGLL
Experimental: (§1) HEK 293 cells were stably transfected to express either NPR-A (GC-A) or NPR-B (GC-B) using Lipofectamine (Invitrogen, Grand Island, N.Y.). Transfected cells were maintained in Dulbecco's modified Eagle's medium supplemented with 10% fetal bovine serum, 100 U/mL penicillin, 100 U/mL streptomycin, and 250 μg/mL G418. The reagents were obtained from Invitrogen (Grand Island, N.Y.).
(§2) The following was performed to carry out cell stimulation and cGMP assays. Cells were plated in 6-well plates and treated as described elsewhere (Tsuruda et al., Circulation Research, 91:1127-1134 (2002)). Briefly, cells were incubated in Hank's balanced salt solution (Invitrogen, Carlsbad, Calif.) containing 20 mmol/L N-[2-hydroxyethyl]piperazine-N′[2-ethanesulfonic acid], 0.1% bovine serum albumin, and 0.5 mmol/L 3-isobutyl-1-methylzanthine (Sigma, St. Louis, Mo.). Treated cells received 10^−10 M, 10^−8M, or 10^−6 M of either BNP-Ang1-7 or Ang1-7BNP for 10 minutes. Cells were lysed in 300 μL 6% TCA and sonicated for 10 minutes. The samples were ether extracted four times in 4 volumes of ether, dried, and reconstituted in 500 μL cGMP assay buffer. The samples were assayed using a competitive RIA cGMP kit (Perkin-Elmer, Boston, Mass.) as described elsewhere (Steiner et al., J. Biol. Chem., 247:1106-1113 (1972)). Samples were corrected for dilution factors and protein concentration, and values were expressed as pmol cGMP/well. There was no cross-reactivity with ANP, BNP, CNP, and Endothelin-1, and less than 0.001 percent cross-reactivity with cAMP, GMP, GDP, ATP, and GTP.

NPR-A (GC-A) = biological target: T2, NPR-A (GC-A) (Homo sapiens, UniProt P16066); assay: cGMP production in HEK 293 cells stably transfected to express NPR-A (GC-A); conditions: NPR-A+ HEK 293 cells; 10^-10 M, 10^-8 M or 10^-6 M for 10 minutes
T2 construct: expressed in transfected cells; host or cells: HEK 293
T2 sequence (P16066 33-1061): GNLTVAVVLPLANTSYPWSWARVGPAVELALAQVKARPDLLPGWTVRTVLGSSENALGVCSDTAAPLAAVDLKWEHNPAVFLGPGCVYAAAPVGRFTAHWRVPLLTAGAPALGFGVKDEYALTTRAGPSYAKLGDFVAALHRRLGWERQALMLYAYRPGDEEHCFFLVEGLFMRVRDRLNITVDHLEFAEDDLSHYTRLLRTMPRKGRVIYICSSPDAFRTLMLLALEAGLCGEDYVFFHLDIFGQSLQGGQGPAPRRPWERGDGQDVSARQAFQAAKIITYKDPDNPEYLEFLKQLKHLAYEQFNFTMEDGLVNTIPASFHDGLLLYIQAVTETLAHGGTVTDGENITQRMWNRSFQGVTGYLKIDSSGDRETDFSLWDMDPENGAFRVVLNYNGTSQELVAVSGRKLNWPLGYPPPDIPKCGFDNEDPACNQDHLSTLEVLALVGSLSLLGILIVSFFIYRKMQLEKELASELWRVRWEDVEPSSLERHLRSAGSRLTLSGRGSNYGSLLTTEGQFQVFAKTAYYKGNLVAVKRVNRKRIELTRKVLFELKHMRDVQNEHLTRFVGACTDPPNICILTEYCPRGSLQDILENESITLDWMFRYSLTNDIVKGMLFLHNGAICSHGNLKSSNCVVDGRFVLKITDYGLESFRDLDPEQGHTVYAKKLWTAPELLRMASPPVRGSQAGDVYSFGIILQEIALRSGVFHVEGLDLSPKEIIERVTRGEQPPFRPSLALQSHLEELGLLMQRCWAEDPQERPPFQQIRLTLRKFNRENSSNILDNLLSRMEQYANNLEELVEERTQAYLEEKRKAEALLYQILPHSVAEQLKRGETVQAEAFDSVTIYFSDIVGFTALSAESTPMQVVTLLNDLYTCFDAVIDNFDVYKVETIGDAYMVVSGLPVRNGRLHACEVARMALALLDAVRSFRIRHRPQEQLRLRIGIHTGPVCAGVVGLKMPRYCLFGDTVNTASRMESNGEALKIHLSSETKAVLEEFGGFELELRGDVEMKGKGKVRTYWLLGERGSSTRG
Experimental: as §1, §2

| Compound | cGMP production [1] | cGMP production (NPR-B (GC-B)) | cGMP production (NPR-A (GC-A)) |
| --- | --- | --- | --- |
| CC[C@H](C)[C@@H]1NC(=O)[C@H](CCCNC(=N)N)NC(=O)[C@H](CC(=O)O)NC(=O)[C@H](CCSC)NC(=O)[C@H](CCCNC(=N)N)NC(=O)CNC(=O)CNC(=O)[C@H](Cc2ccccc2)NC(=O)[C@@H](NC(=O)[C@H](CO)NC(=O)[C@H](CO)NC(=O)[C@H](CCCNC(=N)N)NC(=O)[C@H](CCCNC(=N)N)NC(=O)[C@H](CC(C)C)NC(=O)[C@@H](N)CO)CSSC[C@@H](C(=O)N[C@@H](CC(N)=O)C(=O)N[C@@H](CO)C(=O)N[C@@H](Cc2ccccc2)C(=O)N[C@@H](CCCNC(=N)N)C(=O)N[C@@H](Cc2ccc(O)cc2)C(=O)O)NC(=O)CNC(=O)[C@H](CC(C)C)NC(=O)CNC(=O)[C@H](CO)NC(=O)[C@H](CCC(N)=O)NC(=O)[C@H](C)NC(=O)CNC1=O [ANP, atrial natriuretic peptide] | resulted in cGMP production |  |  |
| cANG: chimeric polypeptide containing an N-terminus and ring structure of CNP and a C-terminal Ang-(1-7) (GLSKGCFGLKLDRIGSMSGLGCDRVYIHP; not fully specified (bridges); cysteine pairing not given here) | resulted in cGMP production |  |  |
| B-type natriuretic peptide [BNP] | resulted in cGMP production | Minimal cGMP production | induced cGMP production |
| angiotensin-(1-7) [Ang1-7] |  | did not induce cGMP production | did not induce cGMP production |
| BNP-Ang1-7: chimeric polypeptide containing an N-terminus and ring structure of BNP and a C-terminal Ang-(1-7) (SPKMVQGSGCFGRKMDRISSSSGLGCDRVYIHP; not fully specified (bridges); cysteine pairing not given here) |  | Neither BNP-Ang1-7 nor Ang1-7BNP induced cGMP production | induced cGMP production |
| C-type natriuretic peptide (GLSKGCFGLKLDRIGSMSGLGC) [CNP] | resulted in cGMP production |  |  |
| Ang1-7BNP: chimeric polypeptide containing an N-terminal Ang-(1-7) and a ring structure and C-terminus of BNP |  | Neither BNP-Ang1-7 nor Ang1-7BNP induced cGMP production | induced cGMP production |
